Assay results as given in patent US20180066029A1.

Assays:
Assay in all cases: CIDOP with next-generation sequencing, recovery of peaks
[1] = biological target: nucleosomes having both H3K9me3 and H3K36me3 (H3K36me2/3)
[2] = biological target: nucleosomes having only H3K9me3
[3] = biological target: nucleosomes having neither H3K9me3 nor H3K36me3
[4] = biological target: nucleosomes having only H3K36me3

- percent of genome regions of this state detected by PM [1]: 80.9%
- percent of genome regions of this state isolated by PM [2]: 6.2%
- percent of genome regions of this state isolated by PM [3]: 0.04%
- percent of genome regions of this state isolated by PM [4]: 6.66%
Substance: artificial protein PM (PWWP domain of Dnmt3a, naturally occurring linker of 21 amino acids, chromodomain of MPP8, N-terminal GST tag) (designed binder)
